Among the data in article PMC4833857 are stoichiometry N values, retold here.

In general, stoichiometry N refers to a count of units in the complex or per binding partner.

In this experiment the target is Kluyveromyces marxianus Tor (KmTor), full-length (Kluyveromyces marxianus). Nature of the experiment: SEC-MALS; 100 µl of 1 mg/ml KmTor-Lst8 complex on Superdex S200 10/300, 50 mM Tris pH 8.8 (23 °C), 300 mM NaCl, 0.3% CHAPS, 1 mM TCEP. In general terms: SEC sorts molecules by how far they enter the pores of the column.
Chain of Kluyveromyces marxianus Tor (KmTor), full-length (Kluyveromyces marxianus) (main, as listed by the source): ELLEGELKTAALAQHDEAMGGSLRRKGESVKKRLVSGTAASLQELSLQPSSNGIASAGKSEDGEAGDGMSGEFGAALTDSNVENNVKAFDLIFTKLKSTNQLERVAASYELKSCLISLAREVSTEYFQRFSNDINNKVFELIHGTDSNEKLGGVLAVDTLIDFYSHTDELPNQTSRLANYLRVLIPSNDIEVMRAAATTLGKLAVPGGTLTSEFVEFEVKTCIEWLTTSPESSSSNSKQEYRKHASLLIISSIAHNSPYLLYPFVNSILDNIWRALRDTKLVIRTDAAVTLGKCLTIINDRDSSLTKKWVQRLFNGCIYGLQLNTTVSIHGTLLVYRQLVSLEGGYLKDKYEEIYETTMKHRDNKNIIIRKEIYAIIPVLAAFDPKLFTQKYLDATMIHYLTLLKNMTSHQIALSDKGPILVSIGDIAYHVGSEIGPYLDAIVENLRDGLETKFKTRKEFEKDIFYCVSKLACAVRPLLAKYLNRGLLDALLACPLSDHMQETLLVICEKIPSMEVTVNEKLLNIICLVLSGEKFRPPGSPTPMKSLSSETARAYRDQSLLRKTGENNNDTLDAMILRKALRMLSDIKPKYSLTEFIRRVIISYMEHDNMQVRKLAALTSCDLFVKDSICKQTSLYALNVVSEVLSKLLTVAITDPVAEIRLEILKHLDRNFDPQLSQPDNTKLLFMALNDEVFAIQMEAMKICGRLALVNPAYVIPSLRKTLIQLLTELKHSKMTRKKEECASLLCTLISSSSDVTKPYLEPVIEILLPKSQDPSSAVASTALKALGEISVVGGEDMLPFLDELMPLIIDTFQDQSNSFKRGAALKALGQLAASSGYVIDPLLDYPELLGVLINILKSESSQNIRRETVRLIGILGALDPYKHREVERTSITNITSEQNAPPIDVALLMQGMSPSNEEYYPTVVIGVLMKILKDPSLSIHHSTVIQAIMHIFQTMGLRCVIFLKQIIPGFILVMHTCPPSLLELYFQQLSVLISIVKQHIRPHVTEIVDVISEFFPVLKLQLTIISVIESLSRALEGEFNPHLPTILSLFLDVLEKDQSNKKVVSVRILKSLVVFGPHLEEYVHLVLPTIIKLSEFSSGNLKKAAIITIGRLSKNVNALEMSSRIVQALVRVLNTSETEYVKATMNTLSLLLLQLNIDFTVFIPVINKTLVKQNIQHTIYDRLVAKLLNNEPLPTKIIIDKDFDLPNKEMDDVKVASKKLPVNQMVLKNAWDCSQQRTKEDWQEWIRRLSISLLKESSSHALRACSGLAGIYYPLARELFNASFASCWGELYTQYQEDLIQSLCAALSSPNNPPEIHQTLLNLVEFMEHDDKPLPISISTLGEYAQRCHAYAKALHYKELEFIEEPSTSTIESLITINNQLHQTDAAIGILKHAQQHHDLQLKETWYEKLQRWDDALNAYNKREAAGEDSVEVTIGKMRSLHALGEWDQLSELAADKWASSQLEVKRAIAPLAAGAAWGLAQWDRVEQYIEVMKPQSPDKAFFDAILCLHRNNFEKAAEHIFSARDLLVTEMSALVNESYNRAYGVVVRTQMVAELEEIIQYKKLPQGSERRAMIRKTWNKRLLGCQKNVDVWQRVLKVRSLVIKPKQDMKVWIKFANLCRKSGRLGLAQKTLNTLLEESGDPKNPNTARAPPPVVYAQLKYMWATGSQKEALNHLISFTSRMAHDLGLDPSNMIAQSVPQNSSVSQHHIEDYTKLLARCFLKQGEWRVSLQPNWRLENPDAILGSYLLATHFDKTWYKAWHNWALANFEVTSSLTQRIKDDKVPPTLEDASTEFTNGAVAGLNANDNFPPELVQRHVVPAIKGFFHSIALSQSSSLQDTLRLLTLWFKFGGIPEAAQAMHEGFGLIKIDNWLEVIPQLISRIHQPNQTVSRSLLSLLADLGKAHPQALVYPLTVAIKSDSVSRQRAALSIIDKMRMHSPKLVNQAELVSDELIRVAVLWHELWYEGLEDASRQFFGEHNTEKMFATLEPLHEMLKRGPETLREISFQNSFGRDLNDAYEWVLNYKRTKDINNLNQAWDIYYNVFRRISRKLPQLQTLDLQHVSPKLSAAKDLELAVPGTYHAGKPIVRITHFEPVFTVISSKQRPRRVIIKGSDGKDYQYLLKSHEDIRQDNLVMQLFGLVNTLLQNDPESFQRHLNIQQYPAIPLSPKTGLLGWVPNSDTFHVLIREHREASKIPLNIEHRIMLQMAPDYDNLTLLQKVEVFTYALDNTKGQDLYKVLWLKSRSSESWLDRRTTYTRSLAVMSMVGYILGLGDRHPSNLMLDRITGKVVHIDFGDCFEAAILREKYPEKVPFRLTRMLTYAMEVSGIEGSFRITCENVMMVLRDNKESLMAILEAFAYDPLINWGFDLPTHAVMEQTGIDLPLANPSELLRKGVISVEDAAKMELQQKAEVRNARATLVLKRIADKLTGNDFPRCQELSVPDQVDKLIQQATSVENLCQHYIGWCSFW

Turning to “Kluyveromyces marxianus Tor (KmTor), full-length”, the stoichiometry N was 2.

In turn, “Kluyveromyces marxianus Lst8 (KmLst8), full-length (natural protein)” gave a stoichiometry N of 1.
